# From paper PMC7949131
# Key:
# [1] = biological target: rat HA-NK1R (neurokinin 1 receptor) (rat) (UniProt P14600)
# [2] = biological target: rat HA-NK1R (neurokinin 1 receptor) (rat) (UniProt P14600); remark: listed apart in the source
# [3] = biological target: rat HA-NK1R (neurokinin 1 receptor) (rat) (UniProt P14600); assay: high-content imaging fluorescent competition binding on cells; HEK-NK1R cells in 96-well plates, increasing concentrations of Span or Span-Chol with 0.5 nM SP-TAMRA, 30 min in total, 37°C; granularity analysis, total cell binding (cell surface and intracellular); competitive binding, one site, fit logIC50
# [4] = biological target: rat HA-NK1R (neurokinin 1 receptor) (rat) (UniProt P14600); assay: high-content imaging fluorescent competition binding on cells; HEK-NK1R cells in 96-well plates, preincubated with Span or Span-Chol for 3.5 h, then 0.5 nM SP-TAMRA for a further 30 min (4 h in total), 37°C; granularity analysis, total cell binding (cell surface and intracellular); competitive binding, one site, fit logIC50
# [5] = biological target: rat HA-NK1R (neurokinin 1 receptor) (rat) (UniProt P14600); remark: listed apart in the source
# Sequence of UniProt P14600 (P14600 whole entry): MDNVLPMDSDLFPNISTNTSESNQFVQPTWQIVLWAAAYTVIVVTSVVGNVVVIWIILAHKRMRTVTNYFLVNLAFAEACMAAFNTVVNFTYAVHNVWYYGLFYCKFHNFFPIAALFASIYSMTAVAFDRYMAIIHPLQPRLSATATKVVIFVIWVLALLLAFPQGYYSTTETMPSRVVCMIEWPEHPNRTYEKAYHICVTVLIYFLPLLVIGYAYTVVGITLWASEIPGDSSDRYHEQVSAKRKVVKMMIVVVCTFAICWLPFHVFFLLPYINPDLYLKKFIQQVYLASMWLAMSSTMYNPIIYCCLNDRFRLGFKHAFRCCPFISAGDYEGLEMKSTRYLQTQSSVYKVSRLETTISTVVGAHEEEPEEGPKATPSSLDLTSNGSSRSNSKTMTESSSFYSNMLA
Substance,"inhibition of Ca^2+ transients to 1 nM SP in HEK-NK1R cells, 30 min preincubation with antagonist (blocks SP with NK1R); pIC50 [1]","inhibition of Ca^2+ transients to 1 nM SP in HEK-NK1R cells, continuous 4 h incubation with antagonist (blocks SP with NK1R); pIC50 [2]",pIC50 [3],pIC50 [4],"inhibition of Ca^2+ transients to 1 nM SP in HEK-NK1R cells, pulsed administration (30 min antagonist, wash, 3.5 h; 4 h total) (blocks SP with NK1R); pIC50 [5]"
Spantide I (peptide),4.87,5.11,5.99,5.55,
Spantide I conjugated to cholestanol via PEG linker (Span-Chol) (peptide),6.25,6.36,6.28,6.5,6.15
